{
  "source": "paper PMC12440826",
  "about": "“Shigella flexneri evades LPS ubiquitylation through IpaH1.4-mediated degradation of RNF213” (Nature Structural & Molecular Biology, 2025)",
  "molecular_target": "T1, 2×Strep–RNF213 (WT human RNF213) (human, UniProt Q63HN8 1-5207)",
  "T1 construct": "RNF213, human E3 ubiquitin ligase; plasmid pOP806_pACEBac1 2×Strep–RNF213; the N terminus (residues 1–398) is not resolved in the maps; source: Sf9, purified (StrepTrap HP)",
  "T1 sequence (Q63HN8 whole entry, the tested form may be a part)": "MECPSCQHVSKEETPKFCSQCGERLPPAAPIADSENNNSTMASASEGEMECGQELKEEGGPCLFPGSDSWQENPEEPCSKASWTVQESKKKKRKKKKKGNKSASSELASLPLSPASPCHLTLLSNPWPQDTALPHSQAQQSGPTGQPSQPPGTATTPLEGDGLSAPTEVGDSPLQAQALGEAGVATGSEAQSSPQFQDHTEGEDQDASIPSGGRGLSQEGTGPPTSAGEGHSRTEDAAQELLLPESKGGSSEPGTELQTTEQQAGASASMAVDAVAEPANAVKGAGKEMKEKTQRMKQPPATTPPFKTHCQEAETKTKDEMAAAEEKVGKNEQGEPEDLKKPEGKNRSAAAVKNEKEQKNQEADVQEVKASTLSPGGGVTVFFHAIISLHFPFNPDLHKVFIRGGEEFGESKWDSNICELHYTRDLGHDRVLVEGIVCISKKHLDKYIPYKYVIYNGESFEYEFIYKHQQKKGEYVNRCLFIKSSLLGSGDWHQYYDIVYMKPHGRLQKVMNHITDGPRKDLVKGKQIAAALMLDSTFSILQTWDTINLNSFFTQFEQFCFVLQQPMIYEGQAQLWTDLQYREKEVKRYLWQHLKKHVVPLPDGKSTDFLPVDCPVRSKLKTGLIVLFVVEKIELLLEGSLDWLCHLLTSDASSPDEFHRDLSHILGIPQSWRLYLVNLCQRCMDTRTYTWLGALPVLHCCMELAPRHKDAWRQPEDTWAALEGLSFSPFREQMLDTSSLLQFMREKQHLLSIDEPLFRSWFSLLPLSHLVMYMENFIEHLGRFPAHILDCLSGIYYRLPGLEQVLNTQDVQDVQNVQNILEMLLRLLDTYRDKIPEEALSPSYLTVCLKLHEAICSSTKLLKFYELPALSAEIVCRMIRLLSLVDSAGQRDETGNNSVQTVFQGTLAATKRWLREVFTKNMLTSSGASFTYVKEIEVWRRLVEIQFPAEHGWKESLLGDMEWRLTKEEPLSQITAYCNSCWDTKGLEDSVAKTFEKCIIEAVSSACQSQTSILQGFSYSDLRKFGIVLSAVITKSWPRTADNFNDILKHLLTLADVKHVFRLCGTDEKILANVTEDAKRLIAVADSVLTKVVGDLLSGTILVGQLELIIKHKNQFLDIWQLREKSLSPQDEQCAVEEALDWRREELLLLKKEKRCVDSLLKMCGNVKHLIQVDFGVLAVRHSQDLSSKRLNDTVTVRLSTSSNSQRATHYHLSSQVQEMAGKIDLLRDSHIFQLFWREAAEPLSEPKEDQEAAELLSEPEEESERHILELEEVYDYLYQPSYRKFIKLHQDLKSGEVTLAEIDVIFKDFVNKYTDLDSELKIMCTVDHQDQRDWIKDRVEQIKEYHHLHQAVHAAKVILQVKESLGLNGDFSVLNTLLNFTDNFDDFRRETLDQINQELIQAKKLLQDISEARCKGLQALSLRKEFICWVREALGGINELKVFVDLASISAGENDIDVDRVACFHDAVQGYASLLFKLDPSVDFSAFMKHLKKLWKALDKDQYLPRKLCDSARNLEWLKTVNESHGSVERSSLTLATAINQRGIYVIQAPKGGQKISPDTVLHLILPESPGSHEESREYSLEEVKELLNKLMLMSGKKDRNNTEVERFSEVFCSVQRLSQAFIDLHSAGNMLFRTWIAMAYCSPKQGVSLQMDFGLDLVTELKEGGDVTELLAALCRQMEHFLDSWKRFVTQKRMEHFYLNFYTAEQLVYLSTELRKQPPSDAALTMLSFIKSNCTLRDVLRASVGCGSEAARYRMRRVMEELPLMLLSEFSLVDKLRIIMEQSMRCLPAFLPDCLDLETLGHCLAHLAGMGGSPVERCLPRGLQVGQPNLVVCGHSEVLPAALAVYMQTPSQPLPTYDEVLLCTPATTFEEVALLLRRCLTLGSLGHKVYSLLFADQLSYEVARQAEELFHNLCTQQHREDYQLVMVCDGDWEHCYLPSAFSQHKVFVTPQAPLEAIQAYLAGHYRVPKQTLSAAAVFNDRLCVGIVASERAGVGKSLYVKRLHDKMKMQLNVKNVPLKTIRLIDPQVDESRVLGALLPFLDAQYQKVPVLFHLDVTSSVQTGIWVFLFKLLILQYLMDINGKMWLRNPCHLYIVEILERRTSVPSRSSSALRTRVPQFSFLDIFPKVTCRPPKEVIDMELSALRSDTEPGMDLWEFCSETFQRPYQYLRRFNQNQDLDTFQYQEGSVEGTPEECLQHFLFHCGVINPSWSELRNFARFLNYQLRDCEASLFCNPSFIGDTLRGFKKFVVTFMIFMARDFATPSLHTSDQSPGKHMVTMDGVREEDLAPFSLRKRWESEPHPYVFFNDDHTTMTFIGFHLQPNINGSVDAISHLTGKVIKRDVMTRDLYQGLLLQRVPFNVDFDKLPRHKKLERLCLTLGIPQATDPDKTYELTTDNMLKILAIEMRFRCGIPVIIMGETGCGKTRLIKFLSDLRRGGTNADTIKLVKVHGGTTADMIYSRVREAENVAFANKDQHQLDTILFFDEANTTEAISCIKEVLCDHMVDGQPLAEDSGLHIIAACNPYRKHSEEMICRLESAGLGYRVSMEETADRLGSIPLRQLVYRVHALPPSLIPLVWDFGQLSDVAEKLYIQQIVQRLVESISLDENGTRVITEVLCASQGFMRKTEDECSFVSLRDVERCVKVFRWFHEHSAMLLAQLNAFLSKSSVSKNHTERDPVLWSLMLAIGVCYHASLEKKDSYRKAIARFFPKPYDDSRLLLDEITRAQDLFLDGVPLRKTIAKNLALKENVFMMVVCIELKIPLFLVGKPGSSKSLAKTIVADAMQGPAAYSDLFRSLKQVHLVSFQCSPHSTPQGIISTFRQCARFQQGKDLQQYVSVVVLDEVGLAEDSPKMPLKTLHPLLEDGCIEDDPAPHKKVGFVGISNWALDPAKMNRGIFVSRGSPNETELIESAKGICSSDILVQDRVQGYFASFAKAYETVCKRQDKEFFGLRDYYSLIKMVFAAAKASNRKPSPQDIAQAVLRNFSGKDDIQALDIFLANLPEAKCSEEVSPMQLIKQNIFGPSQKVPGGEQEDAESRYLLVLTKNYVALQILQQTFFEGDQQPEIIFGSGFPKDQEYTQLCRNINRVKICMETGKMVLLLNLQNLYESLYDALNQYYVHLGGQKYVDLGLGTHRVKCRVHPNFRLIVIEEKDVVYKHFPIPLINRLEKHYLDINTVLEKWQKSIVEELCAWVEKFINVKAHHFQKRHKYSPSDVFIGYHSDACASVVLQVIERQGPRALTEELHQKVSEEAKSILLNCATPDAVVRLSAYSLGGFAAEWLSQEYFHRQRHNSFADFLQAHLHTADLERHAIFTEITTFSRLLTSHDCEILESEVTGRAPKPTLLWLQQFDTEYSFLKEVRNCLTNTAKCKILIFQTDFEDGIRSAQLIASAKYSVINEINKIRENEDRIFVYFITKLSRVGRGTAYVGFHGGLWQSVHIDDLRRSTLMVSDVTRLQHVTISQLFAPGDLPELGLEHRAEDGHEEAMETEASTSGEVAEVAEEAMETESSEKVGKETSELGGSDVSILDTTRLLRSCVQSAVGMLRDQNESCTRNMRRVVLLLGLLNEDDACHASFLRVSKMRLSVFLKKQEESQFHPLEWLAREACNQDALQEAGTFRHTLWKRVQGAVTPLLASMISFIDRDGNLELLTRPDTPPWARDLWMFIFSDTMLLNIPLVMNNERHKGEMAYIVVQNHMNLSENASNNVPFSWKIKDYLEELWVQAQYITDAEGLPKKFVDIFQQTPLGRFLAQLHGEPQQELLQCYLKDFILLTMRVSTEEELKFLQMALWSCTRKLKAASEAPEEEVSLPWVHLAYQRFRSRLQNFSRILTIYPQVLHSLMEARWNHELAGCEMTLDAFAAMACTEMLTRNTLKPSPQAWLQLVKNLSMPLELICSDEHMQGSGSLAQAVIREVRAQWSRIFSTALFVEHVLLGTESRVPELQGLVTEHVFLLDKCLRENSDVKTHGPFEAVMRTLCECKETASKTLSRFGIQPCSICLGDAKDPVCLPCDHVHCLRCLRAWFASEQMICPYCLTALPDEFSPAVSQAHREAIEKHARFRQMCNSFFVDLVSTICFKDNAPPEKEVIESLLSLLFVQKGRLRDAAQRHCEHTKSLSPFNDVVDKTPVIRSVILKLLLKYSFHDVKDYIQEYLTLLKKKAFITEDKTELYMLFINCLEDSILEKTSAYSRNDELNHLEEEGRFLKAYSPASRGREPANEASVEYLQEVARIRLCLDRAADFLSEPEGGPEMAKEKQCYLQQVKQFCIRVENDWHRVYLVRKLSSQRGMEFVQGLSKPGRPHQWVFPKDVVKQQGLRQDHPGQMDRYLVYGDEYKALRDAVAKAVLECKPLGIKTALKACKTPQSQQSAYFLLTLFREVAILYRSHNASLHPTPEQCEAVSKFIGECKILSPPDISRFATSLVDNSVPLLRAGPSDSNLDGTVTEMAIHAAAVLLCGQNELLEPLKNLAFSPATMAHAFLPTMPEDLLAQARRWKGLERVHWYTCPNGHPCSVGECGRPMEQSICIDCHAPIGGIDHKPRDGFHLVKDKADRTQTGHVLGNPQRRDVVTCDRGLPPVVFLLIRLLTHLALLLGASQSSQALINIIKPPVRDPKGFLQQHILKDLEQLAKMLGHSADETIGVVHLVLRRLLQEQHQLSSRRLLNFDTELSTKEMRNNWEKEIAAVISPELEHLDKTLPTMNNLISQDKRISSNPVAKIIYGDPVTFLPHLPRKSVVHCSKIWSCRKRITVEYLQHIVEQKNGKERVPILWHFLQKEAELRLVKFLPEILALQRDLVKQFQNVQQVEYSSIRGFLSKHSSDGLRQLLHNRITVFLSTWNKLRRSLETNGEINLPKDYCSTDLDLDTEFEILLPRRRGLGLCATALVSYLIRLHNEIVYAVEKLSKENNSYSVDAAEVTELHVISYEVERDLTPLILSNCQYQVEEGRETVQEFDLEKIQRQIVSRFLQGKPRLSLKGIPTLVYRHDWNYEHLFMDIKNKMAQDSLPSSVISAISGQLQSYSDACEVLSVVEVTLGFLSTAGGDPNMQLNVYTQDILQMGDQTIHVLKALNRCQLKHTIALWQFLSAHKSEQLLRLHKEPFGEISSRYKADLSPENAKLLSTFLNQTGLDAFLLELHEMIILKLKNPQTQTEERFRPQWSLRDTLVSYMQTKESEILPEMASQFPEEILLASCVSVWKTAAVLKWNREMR",
  "assay": "cryo-EM structure; RNF213 (around 2 μM) mixed with a fivefold molar excess of IpaH1.4/2.5 (10 μM), incubated on ice for 30 min, vitrified on all-gold grids",
  "conditions": "both partners purified",
  "data": [
    {"binder": "IpaH1.4 (untagged, recombinant) (enzyme, IpaH1.4, secreted E3 ubiquitin ligase effector of Shigella flexneri; open reading frame cloned into pETM-30; only the LRR domain is resolved in the map; also called WT IpaH1.4; not shown: 6xHis, N-terminal, cleaved; GST, N-terminal, cleaved) MIKSTNIQAIGSGIMHQINNVYSLTPLSLPMELTPSCNEFYLKTWSEWEKNGTPGEQRNIAFNRLKICLQNQEAELNLSELDLKTLPDLPPQITTLEIRKNLLTHLPDLPPMLKVIHAQFNQLESLPALPETLEELNAGDNKIKELPFLPENLTHLRVHNNRLHILPLLPPELKLLVVSGNRLDSIPPFPDKLEGLALANNFIEQLPELPFSMNRAVLMNNNLTTLPESVLRLAQNAFVNVAGNPLSGHTMRTLQQITTGPDYSGPQIFFSMGNSATISAPEHSLADAVTAWFPENKQSDVSQIWHAFEHEEHANTFSAFLDRLSDTVSARNTSGFREQVAAWLEKLSASAELRQQSFAVAADATESCEDRVALTWNNLRKTLLVHQASEGLFDNDTGALLSLGREMFRLEILEDIARDKVRTLHFVDEIEVYLAFQTMLAEKLQLSTAVKEMRFYGVSGVTANDLRTAEAMVRSREENEFTDWFSLWGPWHAVLKRTEADRWAQAEEQKYEMLENEYSQRVADRLKASGLSGDADAEREAGAQVMRETEQQIYRQLTDEVLALRLSENGSNHIA", "values": [
      {"measurement": "binding result", "result": "binds"}
    ]}
  ]
}
